This experiment addresses human CD40 on cells (human) (UniProt P25942). In words: FACS, inhibition of human CD40L-his binding to CHO-K1/hCD40 cells.

Chain of human CD40 on cells (human) (P25942 21-277): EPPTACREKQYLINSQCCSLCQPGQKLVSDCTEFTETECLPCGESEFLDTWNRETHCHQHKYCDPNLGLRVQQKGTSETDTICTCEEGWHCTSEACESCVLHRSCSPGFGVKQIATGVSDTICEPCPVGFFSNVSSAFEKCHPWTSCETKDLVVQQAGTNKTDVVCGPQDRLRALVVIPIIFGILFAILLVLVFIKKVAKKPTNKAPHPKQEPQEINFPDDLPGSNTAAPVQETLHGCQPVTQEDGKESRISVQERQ

In the case of hIgG1 (antibody), the Maximum inhibition rate (%) is 2.3%.

Source of the values: patent US20250215100A1.
